In patent publication US20070191278A1 (AVIDEX, published 2007):

Experiments:
[1] = target: HLA-A2-pol (biotinylated HLA-A2 plus HIV-1 polymerase 476-484, immobilised on streptavidin) (human; HIV-1)
[2] = target: HLA-A2-flu (biotinylated HLA-A2 plus Influenza matrix protein 58-66, immobilised on streptavidin) (human; Influenza); test: SPR (BIAcore) equilibrium binding, immobilised HLA-A2-flu, 37 °C, mean ± range

B1: soluble CD8αα receptor (residues 1-120 of the mature human CD8α protein, expressed in E. coli and refolded as a homodimer) (receptor)
chain: not shown
notes: also called sCD8αα; CD8 A
Q: What does the source list for B1?
A: koff [1]: 18 s⁻¹; kon [1]: ≥ 140000 M⁻¹ s⁻¹; Kd [2]: 629 µM
